B1: H183/L072 VH Y58K (antibody, name in Kabat numbering, V domains shown)
VH: QVQLVESGGGLVQPGRSLRLSCAASGFTFSNAWMHWVRQAPGKGLEWVAQIKDKGNAYAAKYAPSVKGRFTISRDDSKNSIYLQMNSLKTEDTAVYYCHYVHYASASTVLPAFGVDAWGQGTTVTVSS
VL: DIVMTQSPLSLPVTPGEPASISCQASQELVHMNRNTYLHWYQQKPGQAPRLLIYKVSNRFPGVPDRFSGSGSGTDFTLKISRVEAEDVGVYYCAQGTSVPFTFGQGTKLEIK
B2: H183/L072 VH Y59D (antibody, name in Kabat numbering, V domains shown)
VH: QVQLVESGGGLVQPGRSLRLSCAASGFTFSNAWMHWVRQAPGKGLEWVAQIKDKGNAYAAYDAPSVKGRFTISRDDSKNSIYLQMNSLKTEDTAVYYCHYVHYASASTVLPAFGVDAWGQGTTVTVSS
VL: DIVMTQSPLSLPVTPGEPASISCQASQELVHMNRNTYLHWYQQKPGQAPRLLIYKVSNRFPGVPDRFSGSGSGTDFTLKISRVEAEDVGVYYCAQGTSVPFTFGQGTKLEIK
B3: H183/L072 VH Y59E (antibody, name in Kabat numbering, V domains shown)
VH: QVQLVESGGGLVQPGRSLRLSCAASGFTFSNAWMHWVRQAPGKGLEWVAQIKDKGNAYAAYEAPSVKGRFTISRDDSKNSIYLQMNSLKTEDTAVYYCHYVHYASASTVLPAFGVDAWGQGTTVTVSS
VL: DIVMTQSPLSLPVTPGEPASISCQASQELVHMNRNTYLHWYQQKPGQAPRLLIYKVSNRFPGVPDRFSGSGSGTDFTLKISRVEAEDVGVYYCAQGTSVPFTFGQGTKLEIK
B4: H183/L072 VH Y58L (antibody, name in Kabat numbering, V domains shown)
VH: QVQLVESGGGLVQPGRSLRLSCAASGFTFSNAWMHWVRQAPGKGLEWVAQIKDKGNAYAALYAPSVKGRFTISRDDSKNSIYLQMNSLKTEDTAVYYCHYVHYASASTVLPAFGVDAWGQGTTVTVSS
VL: DIVMTQSPLSLPVTPGEPASISCQASQELVHMNRNTYLHWYQQKPGQAPRLLIYKVSNRFPGVPDRFSGSGSGTDFTLKISRVEAEDVGVYYCAQGTSVPFTFGQGTKLEIK
B5: H183/L072 VH Y58V (antibody, name in Kabat numbering, V domains shown)
VH: QVQLVESGGGLVQPGRSLRLSCAASGFTFSNAWMHWVRQAPGKGLEWVAQIKDKGNAYAAVYAPSVKGRFTISRDDSKNSIYLQMNSLKTEDTAVYYCHYVHYASASTVLPAFGVDAWGQGTTVTVSS
VL: DIVMTQSPLSLPVTPGEPASISCQASQELVHMNRNTYLHWYQQKPGQAPRLLIYKVSNRFPGVPDRFSGSGSGTDFTLKISRVEAEDVGVYYCAQGTSVPFTFGQGTKLEIK
B6: H183/L072 VH Y58N (antibody, name in Kabat numbering, V domains shown)
VH: QVQLVESGGGLVQPGRSLRLSCAASGFTFSNAWMHWVRQAPGKGLEWVAQIKDKGNAYAANYAPSVKGRFTISRDDSKNSIYLQMNSLKTEDTAVYYCHYVHYASASTVLPAFGVDAWGQGTTVTVSS
VL: DIVMTQSPLSLPVTPGEPASISCQASQELVHMNRNTYLHWYQQKPGQAPRLLIYKVSNRFPGVPDRFSGSGSGTDFTLKISRVEAEDVGVYYCAQGTSVPFTFGQGTKLEIK
B7: H183/L072 VH Y58T (antibody, name in Kabat numbering, V domains shown)
VH: QVQLVESGGGLVQPGRSLRLSCAASGFTFSNAWMHWVRQAPGKGLEWVAQIKDKGNAYAATYAPSVKGRFTISRDDSKNSIYLQMNSLKTEDTAVYYCHYVHYASASTVLPAFGVDAWGQGTTVTVSS
VL: DIVMTQSPLSLPVTPGEPASISCQASQELVHMNRNTYLHWYQQKPGQAPRLLIYKVSNRFPGVPDRFSGSGSGTDFTLKISRVEAEDVGVYYCAQGTSVPFTFGQGTKLEIK
B8: H183/L072 VH Y58R (antibody, name in Kabat numbering, V domains shown)
VH: QVQLVESGGGLVQPGRSLRLSCAASGFTFSNAWMHWVRQAPGKGLEWVAQIKDKGNAYAARYAPSVKGRFTISRDDSKNSIYLQMNSLKTEDTAVYYCHYVHYASASTVLPAFGVDAWGQGTTVTVSS
VL: DIVMTQSPLSLPVTPGEPASISCQASQELVHMNRNTYLHWYQQKPGQAPRLLIYKVSNRFPGVPDRFSGSGSGTDFTLKISRVEAEDVGVYYCAQGTSVPFTFGQGTKLEIK
B9: H183/L072 VH Y58Q (antibody, name in Kabat numbering, V domains shown)
VH: QVQLVESGGGLVQPGRSLRLSCAASGFTFSNAWMHWVRQAPGKGLEWVAQIKDKGNAYAAQYAPSVKGRFTISRDDSKNSIYLQMNSLKTEDTAVYYCHYVHYASASTVLPAFGVDAWGQGTTVTVSS
VL: DIVMTQSPLSLPVTPGEPASISCQASQELVHMNRNTYLHWYQQKPGQAPRLLIYKVSNRFPGVPDRFSGSGSGTDFTLKISRVEAEDVGVYYCAQGTSVPFTFGQGTKLEIK
B10: H183/L072 VH Y58M (antibody, name in Kabat numbering, V domains shown)
VH: QVQLVESGGGLVQPGRSLRLSCAASGFTFSNAWMHWVRQAPGKGLEWVAQIKDKGNAYAAMYAPSVKGRFTISRDDSKNSIYLQMNSLKTEDTAVYYCHYVHYASASTVLPAFGVDAWGQGTTVTVSS
VL: DIVMTQSPLSLPVTPGEPASISCQASQELVHMNRNTYLHWYQQKPGQAPRLLIYKVSNRFPGVPDRFSGSGSGTDFTLKISRVEAEDVGVYYCAQGTSVPFTFGQGTKLEIK
B11: H183/L072 VH Y58P (antibody, name in Kabat numbering, V domains shown)
VH: QVQLVESGGGLVQPGRSLRLSCAASGFTFSNAWMHWVRQAPGKGLEWVAQIKDKGNAYAAPYAPSVKGRFTISRDDSKNSIYLQMNSLKTEDTAVYYCHYVHYASASTVLPAFGVDAWGQGTTVTVSS
VL: DIVMTQSPLSLPVTPGEPASISCQASQELVHMNRNTYLHWYQQKPGQAPRLLIYKVSNRFPGVPDRFSGSGSGTDFTLKISRVEAEDVGVYYCAQGTSVPFTFGQGTKLEIK
B12: H183/L072 VH Y58S (antibody, name in Kabat numbering, V domains shown)
VH: QVQLVESGGGLVQPGRSLRLSCAASGFTFSNAWMHWVRQAPGKGLEWVAQIKDKGNAYAASYAPSVKGRFTISRDDSKNSIYLQMNSLKTEDTAVYYCHYVHYASASTVLPAFGVDAWGQGTTVTVSS
VL: DIVMTQSPLSLPVTPGEPASISCQASQELVHMNRNTYLHWYQQKPGQAPRLLIYKVSNRFPGVPDRFSGSGSGTDFTLKISRVEAEDVGVYYCAQGTSVPFTFGQGTKLEIK
B13: H183/L072 VH Y58W (antibody, name in Kabat numbering, V domains shown)
VH: QVQLVESGGGLVQPGRSLRLSCAASGFTFSNAWMHWVRQAPGKGLEWVAQIKDKGNAYAAWYAPSVKGRFTISRDDSKNSIYLQMNSLKTEDTAVYYCHYVHYASASTVLPAFGVDAWGQGTTVTVSS
VL: DIVMTQSPLSLPVTPGEPASISCQASQELVHMNRNTYLHWYQQKPGQAPRLLIYKVSNRFPGVPDRFSGSGSGTDFTLKISRVEAEDVGVYYCAQGTSVPFTFGQGTKLEIK
B14: H183/L072 VH Y59A (antibody, name in Kabat numbering, V domains shown)
VH: QVQLVESGGGLVQPGRSLRLSCAASGFTFSNAWMHWVRQAPGKGLEWVAQIKDKGNAYAAYAAPSVKGRFTISRDDSKNSIYLQMNSLKTEDTAVYYCHYVHYASASTVLPAFGVDAWGQGTTVTVSS
VL: DIVMTQSPLSLPVTPGEPASISCQASQELVHMNRNTYLHWYQQKPGQAPRLLIYKVSNRFPGVPDRFSGSGSGTDFTLKISRVEAEDVGVYYCAQGTSVPFTFGQGTKLEIK

What follows are binders tested against T1, Human CD137 ECD (human) (assay: single mutant vs template dBBDu183H).
T1 construct: also called 4-1BB
T1 sequence (chain, as listed by the source limits assumed): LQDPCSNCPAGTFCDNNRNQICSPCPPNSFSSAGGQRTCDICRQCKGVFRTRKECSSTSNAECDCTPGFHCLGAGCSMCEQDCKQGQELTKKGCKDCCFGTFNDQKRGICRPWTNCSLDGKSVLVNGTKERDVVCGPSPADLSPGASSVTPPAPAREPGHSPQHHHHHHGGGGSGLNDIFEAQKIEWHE
With B1 the “fold change of affinity” value was 0.3 fold. For B2, the “fold change of affinity” value was 0.8 fold. With B3 the “fold change of affinity” value was 0.7 fold. B4 was tested, and the “fold change of affinity” value was 0.4 fold. For B5, the “fold change of affinity” value was 0.2 fold. B6 was tested, and the “fold change of affinity” value was 0.3 fold. B7 was tested, and the “fold change of affinity” value was 0.3 fold. For B8, the “fold change of affinity” value was 0.4 fold. B9 was tested, and the “fold change of affinity” value was 0.4 fold. For B10, the “fold change of affinity” value was 0.6 fold. With B11 the “fold change of affinity” value was 0.2 fold. For B12, the “fold change of affinity” value was 0.3 fold. For B13, the “fold change of affinity” value was 0.2 fold. In the case of B14, the “fold change of affinity” value is reported as 0.7 fold.

— patent publication US20210388087A1 (Chugai, published 2021)
